Series [1] in a line: IASyS optical biosensor, binding in a 2-iminobiotin cuvette. Conditions: for Kd: 2-iminobiotin cuvette, 20.0° C. As to the method:
The biotin-binding characteristics of the AVR proteins were studied as previously described using the IASyS optical biosensor (Marttila, A. T., Airenne, K. J., Laitinen, O. H., Kulik, T., Bayer, E. A ., Wilchek, M. and Kulomaa, M. S. (1998) FEBS Lett. 441, 313-317; Laitinen, O. H., Airenne, K. J., Marttila, A. T., Kulik, T., Porkka, E., Bayer, E. A., Wilchek, M. and Kulomaa, M. S. (1999) FEBS Lett. 461, 52-8). Affinities were measured for 2-iminobiotin or biotin at 20.0° C. using a stirring power of 100%. Briefly, the protein under study in biotin-free buffer was allowed to bind to the biotin-coated surface of the IASyS cuvette. As a negative control, the protein under study was saturated with excess biotin prior to (and was also maintained under biotin excess upon) addition to the cuvette. Under these conditions, residual binding to the biotin surface of the cuvette could be regarded as unspecific, and was used as a measure of baseline variation. Binding equilibrium in the experimental cuvette was considered to be attained after no binding was detected as compared to negative control.
The actual dissociation constants (Kd) were calculated for the AVRs according to the kass and kdiss rates measured in a separate assay in different protein concentrations (varying between 10 μM and 100 pM) (Table 4 and FIG. 6). The binding seemed to follow two-order or even more complex kinetics. However, the first 1000 seconds of the binding fitted considerably well to the bi-phasic curve. All measured dissociation rate constants (kdiss) followed the first-order kinetics. Because of the extremely high binding, affinities of the AVRs for biotin could not be determined except for AVR1, AVR2 and AVR7. Binding to 2-iminobiotin was determined only for AVR4/5, and it was similar to that of avidin. The lack of binding for the other AVRs was surprising, since most of them were purified using 2-iminobiotin agarose.

Series [2] in a line: IASyS reversibility of biotin binding of avidin and AVRs. Conditions: biotin cuvette, after addition of free biotin (0.17 mg/ml). As to the method: The reversibility of biotin binding was studied as follows: Avidin and the AVRs were allowed to bind to a biotin-coated cuvette. After measuring the initial binding (A) as described above, biotin-saturated (0.17 mg/ml) buffer was injected into the cuvette and the amount of proteins remaining bound was measured until no dissociation was seen, again as compared to the negative control cuvette (B). The measurement time was at least 20 minutes. The percent reversibility was calculated as follows: reversibility (%)=100*(A−B)/A. A−B is the amount of liberated proteins after biotin adding.

Series [3] in a line: Isoelectric focusing. The class given is physicochemical. As to the method:
The heat stability of the AVRs was studied by using an SDS-PAGE-based method (Bayer, E. A., Ehrlich-Rogozinski, S. and Wilchek, M. (1996) Electrophoresis 17, 1319-1324). In this method, each protein sample was divided into two fractions one of which was kept biotin-free and the other was supplemented with an excess of biotin. The samples were then mixed with denaturing SDS-PAGE sample buffer (containing β-mercaptoethanol) and incubated at a given temperature for 20 minutes. After heat treatment, the samples were subjected to SDS-PAGE and visualised by staining with Coomassie brilliant blue. The relative proportions of tetrameric and monomeric forms of the AVR proteins (with avidin as the control) were detected. A similar assay, with β-mercaptoethanol omitted from the sample buffer, was performed to examine the presence of intersubunit disulfide-bridges. Sensitivity to proteinase K was studied both in the absence and in the presence of biotin as described (Laitinen, O. H., Airenne, K. J., Marttila, A. T., Kulik, T., Porkka, E., Bayer, E. A., Wilchek, M. and Kulomaa, M. S. (1999) FEBS Lett. 461, 52-8). The isoelectric point of each AVR was determined by isoelectric focusing as previously reported (Marttila, A. T., Airenne, K. J., Laitinen, O. H., Kulik, T., Bayer, E. A., Wilchek, M. and Kulomaa, M. S. (1998) FEBS Lett. 441, 313-317). The glycosylation patterns of the AVR proteins were studied by treating the proteins with Endo Hf and PNGase F glycosidase according to the manufacturer's instructions (New England Biolabs, Mass., USA).

Series [4] in a line: IAsys reversibility of binding to biotin, AVR4/5 forms. Conditions: biotin cuvette. The protocol:
The biotin-binding characteristics of the different avidins were studied using an IAsys optical biosensor at 20° C. […] H., Hytönen, V. P., Ahlroth, M. K., Pentikäinen, O. T., Gallagher, C., Nordlund, H. R., Ovod, V., Marttila, A. T., Porkka, E., Heino, S., Johnson, M. S., Airenne, K. J. & Kulomaa, M. S. (2002) Biochem. J. 363, 609-617).

The mark [5] stands for this setting: 2-iminobiotin cuvette (as for Kd of this protein).

The text below walks through data of patent publication US20060281899A1, “Mutants of biotin binding protein” (priority 2002, published 2006).

Read-outs that look alike come from different tables or passages of the source.

B1: AVR4/5: Recombinant chicken avidin-related protein 4/5 (AVR4 and AVR5 identical in coding sequence) (protein, UniProt P56734 25-150, looked up)
Avidin-related protein 4/5: ARKCSLTGKWTNNLGSIMTIRAVNSRGEFTGTYLTAVADNPGNITLSPLLGIQHKRASQPTFGFTVHWNFSESTTVFTGQCFIDRNGKEVLKTMWLLRSSVNDISYDWKATRVGYNNFTRLCTVEE
Turning to B1, in series [1] (setting [5]), the kass entry is on record as “(1.8 ± 0.2) × 10^5 M^−1 s^−1” and the kdiss entry is “(1.7 ± 0.7) × 10^−3 s^−1”. Further, the equilibrium dissociation constant (Kd) in series [1] (read-out: Kd calculated directly from the binding curves) was 91 nM. In addition, in series [1] (read-out: Kd calculated from the equilibrium response data), the Kd was 570 nM. The “maximal binding (Rmax)” value in series [1] (iminobiotin binding, highest concentration (2.2×10−6 M)) is recorded as “ca. 1000 arc seconds”. In addition, the “Reversibility of biotin binding” value in series [2] was 2 ± 2%. In series [3], the “pI by isoelectric focusing” value is “≈ 10”. Further, the “Reversibility of binding to biotin” value in series [4] is 5 ± 3%.
